Here are results for 15 sequences from a protein production outcome set (Wang et al. 2014).

This data set in a line: label from the status in PepcDB records.
On to “MSLKIKHEHIRMAMNAWAHPDGEKVPAAEITRAYFELGMTFPELYDDSHPEALARNTQKIFRWVEKDTPDAVEKIQALLPAIEKSMPPLLVARMRSHSSAYFRELVETRERLVRDADDFVAVAIAGFNQMNRGGPAGNIVAVHEGHHHHHH”, for which the protein production result is recorded as “not failed”. Regarding “MSLKIKNILLSGGSGKRLWPLSRSLYPKQFLKLFDHKSLFELSFKRNASLVDETLIVCNEKHYFLALEEIKNEIKNKSVGFLLESLSKNTANAIALSALMSDKEDLLIVTPSDHLIKDLQAYENAIKKAIDLAQKGFLVTFGVSIDKPNTEFGYIESPNGLDVKRFIEKPSLDKAIEFQKSGGFYFNSGMFVFQAGVFLDELKKHAPTILKGCERAFESLENAYFFEKKIARLSEKSMQDLEDMSIDIALMQQSHKIKMVELNAKWSDLGNFNALFEEAANEPKENVSLNQTPVFAKESEEGHHHHHH”, the protein production entry is listed as “not failed”. The value for “MSLKKINTVLAAAFILFILWFGAEFILSPETTAPGFGLPSWPSGDGDGFLIIKGIRDVVLALVLGILLVTGHRRALGWALLVEALAAYGDMTAVLAHHGSVATALGVHCLTATLMVVNGLLIMRETRKVAAAPATPAPQPA” was “failed”; that for “MSLKRRQTNIIGVYLADYGGSFYGELLEGIKKGLALFDYEMIVCSGKKSHLFIPEKMVDGAIILDWTFPTKEIEKFAERGHSIVVLDRTTEHRNIRQVLLDNRGGATQAIEQFVNVGSKKVLLLSGPEKGYDSQERLAVSTRELTRFGIPYEIIQGDFTEPSGYAAAKKILSQPQTEPVDVFAFNDEMAIGVYKYVAETNYQMGKDIRIIGFDNSELGAFVQPRLATIAYSKHRWGMVAAEKIIHLMRGEAAESEHIYTRFIEGESFPSEGHHHHHH” was “not failed”. The value for “MSLKSIEVVAAVIRLGEKYLCVQRGQTKFSYTSFRYEFPGGKVEEGESLQEALQREIMEEMDYVIEVGEKLLTVHHTYPDFEITMHAFLCHPVGQRYVLKEHIAAQWLSTREMAILDWAEADKPIVRKISEQEGHHHHHH” was “not failed”; that for “MSLKVPGALPLLFLAACSHLPAKTPLTAEKPAEKKESEQSRVPSQDLTPSMLFDFLLAETALQRGDTEIGLRTYLKLAKNTQDPRVAQRATEAALQARQPAFALEAAKIWTELDPESIPARQMMAALLVHFDRLDEARPHLEKLLAVAGDKIDDAFMQLNSLLVRSPNKNAIFELVKQLAQPYPDLPEAHFAESQAAWFAERFDIALEEMKKALALRPEWEMAAIYEGRILSRESNARAIEFFDDYLKRYPKANDTRITYARLLLAERDYSKAREQFQKLLTENPDNPDVAIAVGLLSLELQNYDVAESNFKRALELGYRDPGMVRFYLGGISEKKQQIPQALNWYRSVTEGTQFIPAQIKYAILLSRTGKTKEGLHHLQQLPVANDQQRAQVIIAEAQLLRESGAYKKAFQLLSSSLEKLPDSPELLYDRALAAEKIGKADIMEQDLRKLIELRPDHAHAYNALGYGIAEHSSKRLPEALELIEKAIKLSPIDPYIIDSLGWVHYRMGDINQGLSYLRQAFAMNPDPEIAAHLGEVLWVQGMKDEAKEIWQTALKNHPGNEALIGVMKKFMK” was “failed”. The value for “MSLKVVIGYLALDDWEFESLFPTIEWKYLTHINASFARVKADGTLNINPVRKRIESVRETAHKHNVKILISLAKNSPGEFTTAINDPKARKELIQQIIAFTKEYKLDGFDIDYEEYDNWDKNFPSLLVFARGLYLAKEKNMLMTCAVNSRWLNYGTEWEQYFDYINLMSYDRGAFTDKPVQHASYDDFVKDLKYWNEQCRASKSKIVGGLPFYGYSWEESLQGAVDDVRGIRYSGILKHLGNEAADKDNIGKTYYNGRPTIANKCKFIKENDYAGVMIWQLFQDAHNDNYDLKLINVVGREMMEEGHHHHHH” was “not failed”; that for “MSLKVVSVDTLCCDAGWRNYHFVKLTTDEGIVGWSEFDEGFGSPGVTAVIEQLGKRLVGASVMEHERFFAEAYCLTRPATGGVVSEGIGAIENALLDAKAKTLNVPCYELLGGKLRDRVPVYWSHCPTWRINHPKFFGPPVTDLDGVKRTAEEARERQFRAIKTNIFIHDDGPLHAWRPGFAVPFQPALNVDRKVLRNLRAHLEALRDGAGPDVEILLDLNFNAKPEGYLKILRELADFDLFWVEIDSYSPQGLAYVRNHSPHPISSCETLFGIREFKPFFDANAVDVAIVDTIWNGVWQSMKIAAFADAHDINVAPHNFYGHLCTMINANFAAAVPNLRIMETDIDRLAWEDELFTHAPEYQNGELIIPDRPGWGTDPVEEAILAHPPKVMGGLLQYKRSEGHHHHHH” was “not failed”. Regarding “MSLLEQLDKNIAASGGLIVSCQPVPGSPLDKPEIVAAMALAAEQAGAVAVRIEGIDNLRMTRSLVSVPIIGIIKRDLDESPVRITPFLDDVDALAQAGAAIIAVDGTARQRPVAVEALLARIHHHHLLAMADCSSVDDGLACQRLGADIIGTTMSGYTTPDTPEEPDLPLVKALHDAGCRVIAEGRYNSPALAAEAIRYGAWAVTVGSAITRLEHICGWYNDALKKAAS”, the protein production result is on record as “not failed”.

Turning to “MSLLTEVETYVLSIIPSGPLKAEIAQKLEDVFAGKNTDLEALMEWLKTRPILSPLTKGILGFVFTLTVPSERGLQRRRFVQNALNGNGDPNNMDRAVKLYKKLKREITFHGAKEVALSYSTGALASCMGLIYNRMGTVTTEVAFGLVCATCEQIADSQHRSHRQMATITNPLIRHENRMVLASTTAKAMEQMAGSSEQAAEAMEVANQARQMVQAMRTIGTHPNSSAGLRDNLLENLQAYQKRMGVQMQRFK”, the protein production entry was “not failed”. The entry for “MSLMLSHNPIVEPFALAHATIVTGDKAGTILRNMTIVVGADGRIEQVAPSIETSIPAEYHYLDGTGKIVMPGLINAHTHLFSQGKPLNPKLATPKGQRMVATFAHSPLGKPYMAATVKHNATTLLESGVTTIRTLGDVGYEVVTLRDQIDAGQILGPRILASGPLMAIPEGHGAPLIALTSGTPEEARTAVAQNLKAGVNAIKIAATGGVTDAQEIGEAGSPQMSVEQMRAICDEAHQYGVIVGAHAQSPEGVRRSLLAGVDTIEHGSVLDDELIGMFRHNPNALRGYSALIPTLSAGLPLTLLGQDVTGITDIQLENSKNVVGGMVSGARQAHEAGLMIGVGTDTGMTFVPQYATWRELELLVAYAGFSPAEALHAATAVNASILGVDAETGSLEVGKSADLLVLNANPLDDLRALEHPALVIAAGHPVWRPGPKRFADIDALLDEAYAEGHHHHHH” is “not failed”.

As to “MSLNGSRRIPQPIRWAMVGGGSQSQIGYIHRCAALRDNTFVLVAGAFDIDPIRGSAFGEQLGVDSERCYADYLSMFEQEARRADGIQAVSIATPNGTHYSITKAALEAGLHVVCEKPLCFTVEQAENLRELSHKHNRIVGVTYGYAGHQLIEQAREMIAAGELGDVRMVHMQFAHGFHSAPVEAQSQATQWRVDPRQAGPSYVLGDVGTHPLYLSEVMLPDLKIKRLMCSRQSFVASRAPLEDNAYTLMEYEGGAMGMVWSSAVNAGSMHGQKIRVIGSRASLEWWDERPNQLSFEVQGQPAQILERGMGYLHPNALIDDRIGGGHPEGLFEAWANLYYRFALAMDATDRSDTQALSAVRYPGIDAGVEGVRWVERCVLSADNDSIWVAYEGHHHHHH”, the protein production entry is listed as “not failed”. The value for “MSLNYKNYTVMLVDDEQPILNSLKRLIKRLGCNIITFTSPLDALEALKGTSVQLVISDMRMPEMGGEVFLEQVAKSYPDIERVVISGYADAQATIDAVNRGKISRFLLKPWEDEDVFKVVEKGLQLAFLREENLRLQEETEAKNKQEGHHHHHH” was “not failed”; that for “MSLPANQIKEPGKQFQPAKSLKEPSQESLPGNLLKEPSQESRILCPDPDIVVELNVGGQFYTTTMGTLMKHPGSKFSEILSRSAKHYKDAQGRFFIDRPGTYFGPLLDYLRTGQVPTEYIPEVYQEAKFYQIHPLVKLLEDKPQIFGEQVARMQFLMGVPNYRENLEVLLHLARAEAVAMRSSKVVVCVVRTEEDDAKCTEPLHILEAKKTPVVKFGPWKAGPVTEDFVYCLEKDIRAKGYTVASQRYHLSRDPYTCFWILVFTWW” was “failed”. The value for “MSLPRTLAFVSTLLLAAFCALPAQADSFIMRLLNKPVPGGVAVVDLGEEGPPPRAFYQGKPVLVVREEGRRWIAVVGIPLSTKPGPQKLEVRAATGNHEERFSVGSKHYREQRITLKNKRQVNPLPEDLKRIERELAEQTAAYRRFSPGLPSNLMLDKPVDGPLSSPFGLRRFFNGEERNPHSGLDFAVPAGTPIKAPAAGKVILIGDYFFNGKTVFVDHGQGFISMFCHLSKIDVKLGQQVPRGGVLGKVGATGRATGPHMHWNVSLNDARVDPAIFIGAFQPEGHHHHHH” was “not failed”.
